Test system: K4 kissing-loop RNA reporter
Assay: apparent KD of K4 kissing-loop reporter; higher = weaker reporter binding
Settings: Eterna round: R107
Protocol: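 RNA-MaP round R107: designed RNA switches with theophylline, tryptophan, arginine or FMN aptamers are transcribed on-chip within common flanks. They are titrated with a labelled K4 kissing-loop RNA reporter in RNA-MaP buffer (100 mM Tris pH 7.5, 80 mM KCl, 4 mM MgCl2), without ligand or with the indicated ligand. Median apparent KD per design.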

[1] = input ligand: theophylline 20 uM
[2] = input ligand: tryptophan 2.4 mM
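Note: bound reporter read as fluorescence of individual clusters on recovered sequencing chips by microscopy, with normalized cluster intensities fitted with a binding model.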

Sequence | apparent KD of K4 kissing-loop reporter (input ligand: FMN 200 uM) [nM] | apparent KD of K4 kissing-loop reporter (input ligand: arginine 13.2 mM) [nM] | apparent KD of K4 kissing-loop reporter (input ligand: none) [nM] | apparent KD of K4 kissing-loop reporter [1] [nM] | apparent KD of K4 kissing-loop reporter [2] [nM]
UAACUCUUGCAGUGAUGUUGCAAGUAAGCUCAGGAUAUCAGGAAACUGAGAAGGGAGCAUCCUGAGCAACUGCAAGAGCUCAGAA [[K1]-[K2]-[F1]-[F2]-[F]'-[K]'-[F]''_Design1] | 224 | 101 | 95.9 | 160 | 87.5
UAAGAGGACCACUGCGAGAGUCCUCGAAUACGAGGACCGGUACGGCCGCCACUCGAUAAUUUGUAGUGAUGUUGCAAGUAAGAAU [BrourdMod 7 - Jieux - Same State Tryptophan A] | 50.3 | 64.5 | 42.1 | 61.9 | 31.8
UACGCCACAGACGUGGAGUACCUUGGGUCGAAGGAUAUCAGCAUUGUGAGAAGGUCGCCGAUUCUAAGUGAUGUUUAGAUCAGGG [theeternabot_sameState_KL_FMN_A_2] | 132 | 275 | 446 | 567 | 409
UACUUAUAGUUAUUUCUAAAUUUAUUUAGUCAGGAUAUCGAAUAGUCGAGAAGGGACAUAAUCAAGUGAUGUUUGAUUAUUCAAA [JR_SSFMNA_Sub023] | 64.8 | 96.1 | 84.8 | 88.8 | 69.6
UACUUAUAUUUCAACUUAAAUUAUUCAGAAGGAGCGUGAUCAUUCACAGGUAGGUCGCUGAACUAGUGAUGUUAGUUUUAAUUUU [JR_Nu_ExcArginiA_Sub022] | 66.3 | 127 | 76.5 | 116 | 62.2
UAGCGCAACCUGCUUACGUAUGAGCCGGAAGGAGCGGCAGAAUUGCCAGGUAGGUCGCCGGCCCAGUGAUGUUGGGAUGGUGUGG [Usritiis] | 265 | 226 | 252 | 223 | 228
UAGGAGUGAUGUUCCAUAUGUAAGGCCGAAGGAGCGGCAUUAUAGCCAGGUAGGUCGCGGCAGUACGUACCAGUGAUGUUGGAAA [KL-SSArg-A5] | 173 | 94.9 | 150 | 119 | 116
UAGUCAUACAGAGGAUAUCGUAUGAGUGAUGUUCAUACGACAUAAUCAAAUUGUAUUGAUGUUCGACGAGAAGGCUGUAUGACUA [FMN B Ex t1] | 221 | 103 | 124 | 117 | 124
UAUAGAAACGUCCUAUCAAUAAAAUGGGAAGGAGCGAGGAAGAACUCAGGUAGGUCGCCCAAUAACCUUAGUGAUGUUAAGGAAA [Version 1] | 126 | 112 | 137 | 156 | 117
UAUAGAGUGACGGCCGCCACUAUUGUGAUUUAAUUGUUAGAGUGAUGUUUUGUUGUUUGAUUUUGUAGGACCGGGUUAUAUGUUA [ecewzmullin] | 1050 | 768 | 976 | 854 | 802
UAUAUAGUGACGGCCGCCACUAUAGUAAUGUUUUUGUUAGAGUGAUGUUUUGUUUUUUAAUUUUAUAGGACCGGGUUAUAUGUUA [llpmullin] | 360 | 218 | 374 | 376 | 240
UAUGCUUGUGCUGAUACCAGUGUUAGUGAUGUUAGGACUGUCAGUAGGAUGCGUGCAUUUCACCCUUGGCAGCAGUAUCGCAGCA [theeternabot_exclusion_KL_Theo_B_48] | 447 | 295 | 351 | 426 | 387
UAUGUACACGGGUAGUGAUACAUCGAGGAAGGAGCGUGCGCAGGCACAGGUAGGUCGCCUCAGCGCACGAGUGAUGUUCGUGGGC [Veti] | 471 | 325 | 393 | 380 | 376
UAUUAAUUGUCAGGAUAUCGAAAUCGAGUGAUGUUCGUAAAUUAAUUAUUAUUAAUAAUAUUUAAACGAGAAGGGACAUUAUUUA [JR_SSFMNB_Sub001] | 235 | 558 | 694 | 647 | 442
UAUUAAUUGUCAGGAUAUCGUAAACGAGUGAUGUUCGUAUAUCGACGAUAGUCGAUUCUAUCUAAACGAGAAGGGACAUUAUUUA [JR_SSFMNB_Sub008] | 346 | 454 | 664 | 516 | 420
UCACUCAUGUGAAGGAGCGUGAGAAGACAUGAGUGAUGUUCAUGUCUAGACCAGCGUCUCUCACAGGUAGGUCGCACAUGAAAGG [Arg B SS t10] | 128 | 105 | 121 | 100 | 121
UCCACGCUUCGAGGAUAUCGGAUUAGAGUGAUGUUCUAAAGACGCCCAGUGAUGUUGGAUGCGAUACGAGAAGGCGGUGGCGUGU [Same State FMN B GF6] | 236 | 195 | 244 | 140 | 176
UCCUGCAGUCUGCCACGAAAGUGGAUUGAUACCAGAGUCGAAAGACUCCCUUGGCAGCGAGUGAUGUUCGAAGCAGGUAAAUAAA [MatMod 1 - Jieux - Exclusion - Theophylline A] | 160 | 204 | 178 | 221 | 130
UCCUUUGUUGCCAGUGAUGUUGGACAGGAAGGAGCGGGCAUAAGCCCAGGUAGGUCGCCUGUCAACUUUCUUAUAGCCCGAAGGU [KL-XArg-A19] | 441 | 352 | 368 | 424 | 370
UCGACUGUGUCGGCCGCCACUGGUAUAAACGGACUAUAACGACAUGAGUGAUGUUCAUGUUCGUCUAGGACCGGGACACAAUGUA [Tryp B Ex t3] | 102 | 81.8 | 96.7 | 81.7 | 90
UCGAUAGAGAGUGAUGUUCUCGUAUCAGAUACCAGUCACGCGAGUGACCCUUGGCAGCUGAUGUACAGCUGAGAGUAGUAUUCGA [Theo A Ex t8] | 90.1 | 104 | 90.5 | 129 | 89.6
UCGAUCGCUAGUGAUGUUGGUGUGCUACAUCGAGGACCGGUACGGCCGCCACUCGAGCCCGAGUAGAAGGGUGGGCUGCUAUGAA [theeternabot_sameState_KL_Trp_A_18] | 1510 | 1030 | 1190 | 743 | 895

— the supplement of paper PMC9170038
